The target in this test is FLAG-tagged BVLF1 (Epstein-Barr virus). The test can be described thus: co-IP; FLAG-tagged BVLF1 as bait with BFRF2 together with BGLF3 or BGLF3(T42A) in 2089 cells; anti-FLAG M2 agarose; anti-Myc blot; quantitation from two independent experiments.

B1: BFRF2 (natural protein)
chain: MALFLARHTLSGTGAGCHGRGPAPDVSEVDLTLQALGERGFSRLLDLGLACLDLSYVEMREFVVWGRPPASEAAVASTPGSLFRSHSSAYWLSEVERPGGLVRWARSQTSPSSLTLAPHLGPSLLSLSVVTGGGCGAVAFCNAFFLAYFLVVRSVFPAFSDRIAAWICDRSPFCENTRAVARGYRGLVKRFLAFVFERSSYDPPLLRQNSRPVERCFAIKNYVPGLDSQSCVTVPSFSRWAQSHASELDPREIRDRVTPATAPSFVADHASALLASLQKKASDTPCGNPIQWMWYRLLVNSCLRSAHCLLPIPAVSEGGRKTGGGVGEELVGAGGPCLSRDVFVAIVSRNVLSCLLNVPAAGPRAYKCFRSHASRPVSGPDYPPLAVFCMDCGYCLNFGKQTGVGGRLNSFRPTLQFYPRDQKEKHVLTCHASGRVYCSNCGSAAVGCQRLAEPPSARSGWRPRIRAVLPHNAAYELDRGSRLLDAIIPCLGPDRTCMRPVVLRGVTVRQLLYLTLRTEARAVCSICQQRQAPEDARDEPHLFSSCLEVELPPGERCAGCRLYQTRYGTPAAQAHPPGEAGGGFSRQSPAS
B1 had a fold increase of the BVLF1-BFRF2 interaction with wild type BGLF3 relative to no BGLF3 of 6 fold.

For the origin of these results see article PMC6713331.
